Among the data in PMC8231982 are Kd values, retold here.

Usually Kd stands for the constant that tells how readily two partners part at equilibrium. The low end stands for higher affinity, the high end for lower affinity.

In test [1] the target is T1, HIV-1 gp120 monomer, strain HxBc2 (HIV-1, strain HxBc2), P04578. In words: SPR. The settings on record: remark: other sources report otherwise.
In test [2] the target is T1, HIV-1 gp120 monomer, strain HxBc2 …. The test is described as follows: SPR. The settings on record: remark: other sources report otherwise. This is another data set of the same source.

B1: wild-type cyanovirin-N (WT CV–N), P81180 1-101 (natural protein)
chain: LGKFSQTCYNSAIQGSVLTSTCERTNGGYNTSSIDLNSVIENVDGSLKWQPSNFIETCRNTQLAGSSELAAECKTRAQQFVSTKINLDDHIANIDGTLKYE
Consider B1, for which the Kd was 260 nM in test [1] and 250 nM in test [2].
